# Measured values taken from patent publication US20220089784A1 (University of California, published 2022).
# T1: BoNT/C1 holotoxin (Clostridium botulinum, UniProt P18640 2-1291)
# T1 sequence: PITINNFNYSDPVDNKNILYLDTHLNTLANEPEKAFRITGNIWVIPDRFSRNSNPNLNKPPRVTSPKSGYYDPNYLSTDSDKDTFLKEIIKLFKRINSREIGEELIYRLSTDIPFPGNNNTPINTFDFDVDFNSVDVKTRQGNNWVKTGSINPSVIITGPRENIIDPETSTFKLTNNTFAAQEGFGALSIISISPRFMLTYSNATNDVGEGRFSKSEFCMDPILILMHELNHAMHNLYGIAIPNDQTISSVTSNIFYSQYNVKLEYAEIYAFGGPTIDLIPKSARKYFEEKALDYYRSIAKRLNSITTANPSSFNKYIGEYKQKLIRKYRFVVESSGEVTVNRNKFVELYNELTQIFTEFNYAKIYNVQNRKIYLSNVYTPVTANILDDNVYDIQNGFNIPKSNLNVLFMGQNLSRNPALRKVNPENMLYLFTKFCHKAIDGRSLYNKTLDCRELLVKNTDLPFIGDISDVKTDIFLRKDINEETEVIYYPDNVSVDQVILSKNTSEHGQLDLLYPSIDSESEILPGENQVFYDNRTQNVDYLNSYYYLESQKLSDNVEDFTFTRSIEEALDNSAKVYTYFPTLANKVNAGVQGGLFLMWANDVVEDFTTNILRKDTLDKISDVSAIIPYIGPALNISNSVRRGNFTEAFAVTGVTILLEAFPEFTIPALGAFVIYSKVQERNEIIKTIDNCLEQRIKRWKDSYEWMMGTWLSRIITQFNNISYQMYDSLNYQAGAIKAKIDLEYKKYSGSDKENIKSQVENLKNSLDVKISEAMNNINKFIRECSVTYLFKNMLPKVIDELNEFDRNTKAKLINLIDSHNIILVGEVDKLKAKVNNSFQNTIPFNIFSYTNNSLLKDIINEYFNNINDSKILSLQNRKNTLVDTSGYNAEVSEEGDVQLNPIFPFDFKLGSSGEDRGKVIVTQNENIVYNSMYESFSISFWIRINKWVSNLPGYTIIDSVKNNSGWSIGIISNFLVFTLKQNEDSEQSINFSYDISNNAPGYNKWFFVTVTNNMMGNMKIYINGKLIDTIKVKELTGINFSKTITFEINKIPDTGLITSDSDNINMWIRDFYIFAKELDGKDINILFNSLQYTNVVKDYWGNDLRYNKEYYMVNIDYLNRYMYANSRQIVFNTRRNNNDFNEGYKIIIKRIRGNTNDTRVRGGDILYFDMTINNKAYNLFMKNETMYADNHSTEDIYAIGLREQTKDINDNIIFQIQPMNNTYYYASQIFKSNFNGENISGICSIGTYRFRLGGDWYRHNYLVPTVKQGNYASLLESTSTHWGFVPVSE
# T2: BoNT/D (Clostridium botulinum, UniProt P19321 2-1276)
# T2 sequence: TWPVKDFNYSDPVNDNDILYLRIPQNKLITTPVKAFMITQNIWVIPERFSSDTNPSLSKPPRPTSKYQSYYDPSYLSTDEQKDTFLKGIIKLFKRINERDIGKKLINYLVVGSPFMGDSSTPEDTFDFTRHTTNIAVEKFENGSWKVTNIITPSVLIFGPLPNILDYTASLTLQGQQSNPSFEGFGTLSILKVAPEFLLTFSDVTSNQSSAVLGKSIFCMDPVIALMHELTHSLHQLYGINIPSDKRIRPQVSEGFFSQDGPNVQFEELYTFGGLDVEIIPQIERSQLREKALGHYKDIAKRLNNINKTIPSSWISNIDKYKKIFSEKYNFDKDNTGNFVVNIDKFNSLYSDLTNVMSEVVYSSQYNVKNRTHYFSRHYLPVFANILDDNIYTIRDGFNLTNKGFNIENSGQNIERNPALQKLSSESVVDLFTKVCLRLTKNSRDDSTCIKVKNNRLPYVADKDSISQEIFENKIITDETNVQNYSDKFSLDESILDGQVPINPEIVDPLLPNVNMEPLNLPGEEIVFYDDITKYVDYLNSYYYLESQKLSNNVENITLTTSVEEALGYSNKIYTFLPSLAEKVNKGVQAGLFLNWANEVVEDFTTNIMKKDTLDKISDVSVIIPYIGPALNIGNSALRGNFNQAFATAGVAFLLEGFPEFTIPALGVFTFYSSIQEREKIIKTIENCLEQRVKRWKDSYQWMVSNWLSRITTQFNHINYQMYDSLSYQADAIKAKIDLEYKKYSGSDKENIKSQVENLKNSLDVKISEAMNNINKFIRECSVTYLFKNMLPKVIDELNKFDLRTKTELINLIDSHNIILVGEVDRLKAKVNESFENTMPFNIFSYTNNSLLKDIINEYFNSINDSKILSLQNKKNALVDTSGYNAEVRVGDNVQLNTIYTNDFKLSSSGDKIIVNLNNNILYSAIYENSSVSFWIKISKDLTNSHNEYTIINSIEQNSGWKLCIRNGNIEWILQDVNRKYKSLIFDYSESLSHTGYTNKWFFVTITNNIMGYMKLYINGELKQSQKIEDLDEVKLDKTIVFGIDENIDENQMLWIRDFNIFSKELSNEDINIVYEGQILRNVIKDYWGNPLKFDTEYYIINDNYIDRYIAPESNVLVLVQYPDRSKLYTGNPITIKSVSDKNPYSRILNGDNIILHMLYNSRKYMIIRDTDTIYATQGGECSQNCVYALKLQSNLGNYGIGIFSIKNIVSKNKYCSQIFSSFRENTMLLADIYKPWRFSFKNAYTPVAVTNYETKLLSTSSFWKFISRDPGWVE
# B1: 8D2 scFv (scFv, V domains shown)
# VH: QVQLVQSGAEVKKPGESLKISCKGSGYSFTSYWIGWVRQMPGKGLEWMGIIYPGDSDTRYSPSFQGQVTISADKSISTAYLQWSSLKASDTAMYYCVSYSSLDAFDIWGQGTMVTVSS
# VL: EIVLTQSPSSLSASVGDRVTITCQASQDISNSLCWYQQKPGKAPKLLIYDASNLETGVPSRFSGSGSGTDFIFTISSLQPEDIATYYCQQYDNLLRVFGGGTKLEIK
# notes: human
# B2: 8DC7 scFv (scFv, V domains shown)
# VH: QVQLVQSGGRLVRPGGSLRLSCAASGFVFSNYGMHWVRQAPGKGLEWVAFLTHGGTNKYYSDSVKGRLTISRDNAKSTLFLEVNSLRVEDTAIYYCVKEGQLDSKYYFDSWGQGTLVTVSS
# VL: EIVLTQSPSSLSASVGDRVTITCRASQSISSYLAWYQQKPGKAPELLIYAASTLQSGVPSRFSGSGSGTDFTLTISSVQPEDFATYYCQQSYSTPFTFGQGTKVEIK
# notes: human
# B3: 8DC8.6 scFv (scFv, V domains shown)
# VH: QVQLQQSGPGLVKPSETLSLTCTVSGGSISSAGYSWSWIRQSPGKGLECLGYIYQTGSTFYNLSLKGRVTMSLDRSKNQISLRLTSVVAADTAVYYCARVVGVYPGWFDSWGQGTLVTVSS
# VL: DIQMTQSPSSLSASVGDRVTITCRASQGVSTDLAWYQQKPGRAPKLLIYRASSLQSGVPSRFSGSGSGTDFTLTISSLQPDDLATYYCQHYESYSPWTFGQGTQGEIK
# notes: human
# B4: 8DC8.3 scFv (scFv, V domains shown)
# VH: QVQLQQSGPGLVKPSETLSLTCTVSGGSISSAGYSWSWIRQSPGKGLECLGYIYQTGSTFYNLSLKGRVTMSLDRSKNQISLRLTSVVAADTAVYYCARVVGVYPGWFDSWGQGTLVTVSS
# VL: DIVMTQSPSSLSASVGDRVTITCRASQSVSRWLAWYQQKPGKPPKLLIYEASSLESGVPSRFSGSGSGTDFTLTITSLQPEDFATYYCQQYENLPPSTFGGGTKLEIK
# notes: human
# B5: 8DC8 scFv (scFv, V domains shown)
# VH: QVQLQQSGPGLVKPSETLSLTCTVSGGSISSAGYSWSWIRQSPGKGLECLGYIYQTGSTFYNLSLKGRVTMSLDRSKNQISLRLTSVVAADTAVYYCARVVGVYPGWFDSWGQGTLVTVSS
# VL: DIVMTQSPSTLSASVGDRVTITCRASQSINIWMAWYQQKPGKAPKLLVYKASSLESGVPSRFSGSGSGTEFTLTISSLQPDDFATYYCQQYNSYGTFGKGTKVEIK
# notes: human
# B6: 8DC10 scFv (scFv, V domains shown)
# VH: QVQLVQSGAEAKKPGASVKLSCQASGYTFTGYAIHWVRQAPGQRLEWLGWINCVNGNTKYSPKLPGRVTITRDTSATTAYLELNSLTSEDTAVYYCARSMLVAARVYYYYGMDVWGQGTMVTVSS
# VL: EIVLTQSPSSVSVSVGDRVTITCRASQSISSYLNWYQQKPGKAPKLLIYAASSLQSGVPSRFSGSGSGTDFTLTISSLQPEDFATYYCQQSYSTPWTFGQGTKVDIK
# notes: human
# B7: 8DC3.1 scFv (scFv, V domains shown)
# VH: QVQLVQSRGGLVKPGGSLRLSCAASGFTFSSHSMNWVRQAPGKGLEWVSSISSSSSYIYYADSVKGRFTISRDNSKNSLYLQLNSLRAEDTAVYYCARDQGGGSVVGTNWFDPWGQGTLVTVSS
# VL: SALTQPASVSGSPGQSVTISCTGTSSDVGGYNYVSWYQQHPGKAPKLMIYDVSKRPSGVPDRFSGSKSGNTASLTISGLQAEDEADYYCCSYAGRYTYVFGTGTKVTVL
# notes: human
# B8: 8DC15 scFv (scFv, V domains shown)
# VH: QVQLQESGPGLLKPSQTLSLTCSVSGGSMITGGYYWTWVRQLPGKGLEWIGHVYYTGKTYYNPSLNGRFTIAIDTSKNQFSLNLNSVTATDTAVFYCARAIWGGWYFDLWGQGTLVTVSS
# VL: DIQMTQSPSSLSASVGDRITITCRASRDIRDDLAWYQQKPGKAPKLLIYAASSLQSGVPSRFSGSGSGTEFTLTISSLQPEDFATYYCQQANSFPLTFGGGTKVDIK
# notes: human
# B9: 8DC6 scFv (scFv, V domains shown)
# VH: EVQMVESGGGVVQPGRSLRLSCAASGFTFTSYAMHWVRQAPGKGLEWVAMISNDESNTKYADSVKGRFTISRDNSKNTLFLQMNSLRAEDTAMYSCARGGYYTRPLAFDTWGPGTTVTVSS
# VL: DVVMTQSPSSVSASVGDRVTITCRASQGISSYLAWYQQKPGKVPKLLIYAASSLQRGVPSRFSGSGSGTDFTLTISRLQPEDVATYYCQKYNSAPLTFGGGTKVEIK
# notes: human
# B10: 1C2 scFv (scFv, V domains shown)
# VH: QVQLQQSGAEVRKSGASVKVSCKTSGYTFTTYYIHWVRQAPGQGLEWMGMIDPRGGSASYAQRFQGRVTMTRDTSTTTVFLALNSLESNDTAVYYCARGGLPYQQLPLWGQGTLVTVSS
# VL: not shown
# notes: human
# B11: 1C1 scFv (scFv, V domains shown)
# VH: QVQLQESGSGLVKPSQSLSLTCAVSGGSISSGDYSWSWIRQPPGEGLEWIGYIFPRGSTYYNPSLRSRVTMSVDRSKNQFSLSLNSVTAADTAVYYCARTKMGAAEGVFDYWGQGTLVTVSS
# VL: DIVMTQSPSTLSASVGDRVTITCRASQSVSTWLAWYQQKPGKAPNLLISEASNLESGVPSRFSGSGSGTEFTLTISSLQPDDFAIYYCQQYNSYVWTFGQGTKLEIK
# notes: human
# B12: 1C1.1 scFv (scFv, V domains shown)
# VH: QVQLQESGSGLVKPSQSLSLTCAVSGGSISSGDYSWSWIRQPPGEGLEWIGYIFPRGSTYYNPSLRSRVTMSVDRSKNQFSLSLNSVTAADTAVYYCARTKMGAAEGVFDYWGQGTLVTVSS
# VL: EIVLTQSPSSLPASVGDRVTITCRASQSIGTYLNWYQHKPGSAPKLLINAASSLQSGVPSRFSGSGSGTDFTLTISSLQPDDFATYYCQQYNSYTWTFGQGTKVGIK
# notes: human
# B13: 87C1 scFv (scFv, V domains shown)
# VH: QVQLQQSGGGVVQPGRSLRLSCAGSGFTLSTYGMHWVRQAPGKGLEWVAVISNDGSKEYYADSVKGRFAISRDNSKNTLSLQMNGLRAEDTAIYYCAKAIKSYSTIGGACNLWGQGTMVTVSS
# VL: DIVMTQSPSFLSASVGDRVTITCRASQSISSYLNWYQQKPGKAPKLLIYAASSLQSGVPSRFSGSRSGTYFTLTISSLQPEDFATYYCQQSYITWTFGQGTRLEIK
# notes: human
# What was measured:
# Test in all cases: yeast scFv FACS
# [1] = molecular target: T1, BoNT/C1 holotoxin
# [2] = molecular target: T2, BoNT/D
# [3] = molecular target: T1, BoNT/C1 holotoxin; remark: listed apart in the source
Binder,binding result [1],binding result [2],Kd [3] [nM]
B1,no binding (tested: ~1 µM),,
B2,no binding (tested: ~1 µM),binds,
B3,no binding (tested: ~1 µM),binds,
B4,no binding (tested: ~1 µM),,
B5,no binding (tested: ~1 µM),,
B6,no binding (tested: ~1 µM),binds,
B7,no binding (tested: ~1 µM),binds,
B8,,no binding (tested: ~1 µM),
B9,no binding (tested: ~1 µM),,
B10,,no binding (tested: ~1 µM),24
B11,,no binding (tested: ~1 µM),0.5
B12,,no binding (tested: ~1 µM),0.15
B13,,no binding (tested: ~1 µM),2
